Test results: patent US20210017289A1 (AbbVie / Abbott, published 2021)

What was measured:
Cyno OX40-Fc fusion = molecular target: T1, Cyno OX40-Fc fusion (cynomolgus monkey, UniProt P43489 29-214 (human entry), limits assumed); assay: ELISA on plates coated with Cyno OX40-Fc fusion
T1 construct: also called recombinant cynomolgus (cyno) OX40; not shown: Fc part of the fusion
T1 chain: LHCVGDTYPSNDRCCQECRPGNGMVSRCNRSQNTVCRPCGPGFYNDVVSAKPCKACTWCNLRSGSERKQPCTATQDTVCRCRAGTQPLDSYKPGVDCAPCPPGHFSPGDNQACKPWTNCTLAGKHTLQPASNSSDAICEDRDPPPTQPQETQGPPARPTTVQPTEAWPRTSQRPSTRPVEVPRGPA
Procedure: Immunolon 4×HB 96-well plates (Thermo Scientific) were coated with 1 μg/mL of Cyno OX40-Fc fusion at 4° C. overnight. Plates were blocked with PBS containing 1% bovine serum albumin (BSA) for 30 minutes at RT and then washed three times with PBST (PBS with 0.1% Tween 20). OX40-coated plates were then incubated with indicated concentrations of anti-OX40 antibody at room temperature for one hour. Plates were washed four times with PBST and then incubated for 1 hour at room temperature with 100 μL of goat anti-human FAB fragment specific-Biotin (Jackson ImmunoResearch) prepared to a dilution of 1:5000 in PBS containing 1% BSA. Plates were then washed five times in PBST and 100 μL of a 1:1000 dilution of streptavidin-HRP (Thermo Scientific) was added to each well and incubated for 30 minutes at room temperature. Plates were then washed five times in PBST and 100 μL of TMB One component (Surmodics) were added to each well and incubated at room temperature until color developed (approximately 5-10 minutes). Optical density (OD) was read at 650 nm (Molecular Devices Spectromax190).

[1] = molecular target: T2, human OX40 expressed on cells (human, UniProt P43489 29-277); assay: cell-based or functional assay
T2 sequence: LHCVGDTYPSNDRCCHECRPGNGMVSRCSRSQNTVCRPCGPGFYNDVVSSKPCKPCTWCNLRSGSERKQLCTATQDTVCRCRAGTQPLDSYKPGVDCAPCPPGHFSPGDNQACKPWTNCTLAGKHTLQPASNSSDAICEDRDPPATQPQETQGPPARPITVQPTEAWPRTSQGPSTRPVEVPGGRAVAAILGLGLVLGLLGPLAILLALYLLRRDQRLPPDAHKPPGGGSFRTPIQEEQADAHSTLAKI

[2] = molecular target: T2, human OX40 expressed on cells; assay: competition by flow cytometry on Jurkat-NF-κB-huOX40 cells; competitor: ALEXA FLUOR 647-labeled Hu3738 at 2 µg/mL
Procedure: Analysis was performed by flow cytometry.

[3] = molecular target: T3, recombinant soluble human OX40 ECD (residues 1-216) (human, UniProt P43489 29-216); assay: SPR (Biacore T200, 25 °C), antibody captured by anti-Fc, OX40 ECD as analyte
T3 construct: Purchased from Creative Biomart and further purified by gel filtration; also called recombinant extracellular domain of human OX40
T3 sequence: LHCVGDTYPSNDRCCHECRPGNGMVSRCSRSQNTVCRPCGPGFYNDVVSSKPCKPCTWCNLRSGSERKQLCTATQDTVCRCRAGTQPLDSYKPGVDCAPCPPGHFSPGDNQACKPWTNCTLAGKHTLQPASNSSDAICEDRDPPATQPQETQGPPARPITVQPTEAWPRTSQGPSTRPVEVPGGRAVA
Procedure: The binding kinetics of an anti-OX40 antibody to recombinant soluble OX40 ECD (extracellular domain) were determined by surface plasmon resonance-based measurements made on a Biacore T200 instrument (GE Healthcare) at 25° C. using an anti-Fc capture assay approach. Recombinant extracellular domains (ECDs) of human OX40 (residues 1-216) and rhesus macaque OX40 (residues 28-214) were purchased (Creative Biomart) and further purified by gel filtration using Superdex200 (GE Healthcare) in 10 mM 4-(2-hydroxyethyl)-1-piperazineethanesulfonic acid (HEPES), pH 7.4, 150 mM NaCl, 3 mM ethylenediaminetetraacetic acid (EDTA). Rhesus macaque (Macaca mulatta) OX40 is identical to cynomolgus monkey (Macaca fascicularis) OX40 (SEQ ID NO:2) at the amino acid level. Chip preparation and binding kinetic measurements were made in the assay buffer HBS-EP+(10 mM HEPES, pH 7.4, 150 mM NaCl, 3 mM EDTA, 0.05% Tween 20). For anti-Fc capture chip preparation, approximately 2000 Resonance Units (RU) of goat anti-human IgG Fc polyclonal antibody (Thermo Fisher Scientific Inc.), diluted to 25 μg/mL in 10 mM sodium acetate (pH 4.5), was directly immobilized across a CMS biosensor chip using a standard amine coupling kit according to manufacturer's instructions and procedures. Unreacted moieties on the biosensor surface were blocked with ethanolamine. For binding kinetics measurements each assay cycle consisted of the following steps: 1) capture of test anti-OX40 antibody on test surface only; 2) analyte injection (OX40 ECD or buffer only) over both reference and test surface, 240 μL at 80 μL/min, after which the dissociation was monitored for 900 seconds at 80 μL/min; 3) regeneration of capture surface by 10 mM Glycine-HCl, pH 1.5 injections over both reference and test surface. During the assay, all measurements were referenced against the capture surface alone (i.e., with no captured test antibody) and buffer-only injections were used for double referencing. OX40 injections ranged in concentration from 900 nM or 300 nM to 11.11 nM in a randomized 9- or 3-fold dilution series, respectively. Data were processed and fitted globally to a 1:1 binding model using Biacore T200 Evaluation software to determine the binding kinetic rate constants, kₐ (M⁻¹s⁻¹) and kd (s¹), and the equilibrium dissociation constant KD (M).

[4] = molecular target: T2, human OX40 expressed on cells; assay: flow cytometry on CD3/CD28 bead activated human CD4+ T cells
Procedure: After 24 hours, the beads were removed with a magnet. Cells were counted and resuspended to 1.5×10⁶/mL. An aliquot of the cell suspension (100 μL) was used per stain. Test antibody was titrated in a 4-fold dilution series starting at 1 μg/mL. Cells were stained for 30 minutes and washed twice. A 1:250 dilution of (4 μg/mL) of Goat anti Human Fc specific-PE/well (Jackson ImmunoResearch) was added in 100 μL/well PBS containing 1% BSA. Cells were stained for an additional 30 minutes and washed twice, transferred to tubes and acquired using the BD LSR Fortessa flow cytometer, and analyzed using FACSDiva analysis software version 8.0.1.

- EC50 (Cyno OX40-Fc fusion): 0.039 nM
- EC50 With Cross-linker (nM), NF-κB signaling [1]: 0.088 nM
- EC50 Without Cross-linker (nM), NF-κB signaling [1]: 20 nM
- IC50 (read off the curve) [2]: ~1 µg/mL
- Kd [3]: 42 nM
- koff [3]: 0.042 s⁻¹
- EC50 [4]: 0.053 nM
B1: Hu3738 (antibody, V domains shown)
VH: EVQLVESGGGLVQPGGSLRLSCAASGFTFSRYGMSWVRQAPGKGLELVATINSNGGRTYYPDSVKGRFTISRDNAKNSLYLQMNSLRAEDTAVYYCAREGITTAYAMDYWGQGTTVTVSS
VL: DIVMTQSPDSLAVSLGERATINCKASQSVDYDGDSYMHWYQQKPGQPPKLLIYAASILESGVPDRFSGSGSGTDFTLTISSLQAEDVAVYYCQQSNEDPRTFGGGTKVEIKR
notes: Humanized antibody; also called exemplary anti-OX40 antibody Hu3738; Hu3738 VH.1b / Hu3738 VL.1
